Reference: paper PMC9772378

Assays:
[1] = molecular target: Singapore16 N2 NA (head domain, residues 82-469) with VASP tetramerization domain (influenza A virus A/Singapore/INFIMH-16-0019/2016 (H3N2)); experiment: negative-stain electron microscopy
[2] = molecular target: Singapore16 N2 NA (head domain, residues 82-469) without VASP tetramerization domain (influenza A virus A/Singapore/INFIMH-16-0019/2016 (H3N2)); experiment: negative-stain electron microscopy

Substance | stoichiometry N [1] | stoichiometry N [2]
Singapore16 N2 NA (head domain, residues 82-469) with VASP tetramerization domain (domain or fragment) | 4 | 
Singapore16 N2 NA (head domain, residues 82-469) without VASP tetramerization domain (domain or fragment) |  | 4
